Assay results as given in the supplement of paper PMC11246515.
± gives the standard deviation of the averaged measurements.

Assay: total protein half-life in vivo (active degradation + dilution); higher = more stable protein
[1] = E. coli NCM3722 delta-clpP delta-lon delta-hslV, growth: N-lim chemostat, doubling time 6 h
[2] = E. coli NCM3722 delta-clpP, growth: N-lim chemostat, doubling time 6 h
[3] = E. coli NCM3722 delta-hslV, growth: N-lim chemostat, doubling time 6 h
[4] = E. coli NCM3722 delta-lon, growth: N-lim chemostat, doubling time 6 h
[5] = E. coli NCM3722 delta-smpB, growth: N-lim chemostat, doubling time 6 h
[6] = wild type E. coli NCM3722, growth: C-lim chemostat, doubling time 3 h
[7] = wild type E. coli NCM3722, growth: C-lim chemostat, doubling time 6 h
[8] = wild type E. coli NCM3722, growth: C-lim chemostat, doubling time 12 h
[9] = wild type E. coli NCM3722, growth: N-lim chemostat, doubling time 6 h
[10] = wild type E. coli NCM3722, growth: N-lim chemostat, doubling time 12 h
[11] = wild type E. coli NCM3722, growth: P-lim chemostat, doubling time 6 h
[12] = wild type E. coli NCM3722, growth: P-lim chemostat, doubling time 12 h

Row | Sequence | total protein half-life in vivo [1] [h] | total protein half-life in vivo [2] [h] | total protein half-life in vivo [3] [h] | total protein half-life in vivo [4] [h] | total protein half-life in vivo [5] [h] | total protein half-life in vivo [6] [h] | total protein half-life in vivo [7] [h] | total protein half-life in vivo [8] [h] | total protein half-life in vivo [9] [h] | total protein half-life in vivo [10] [h] | total protein half-life in vivo [11] [h] | total protein half-life in vivo [12] [h]
1 | MPIHDKSPRPQEFAAVDLGSNSFHMVIARVVDGAMQIIGRLKQRVHLADGLGPDNMLSEEAMTRGLNCLSLFAERLQGFSPASVCIVGTHTLRQALNATDFLKRAEKVIPYPIEIISGNEEARLIFMGVEHTQPEKGRKLVIDIGGGSTELVIGENFEPILVESRRMGCVSFAQLYFPGGVINKENFQRARMAAAQKLETLTWQFRIQGWNVAMGASGTIKAAHEVLMEMGEKDGIITPERLEKLVKEVLRHRNFASLSLPGLSEERKTVFVPGLAILCGVFDALAIRELRLSDGALREGVLYEMEGRFRHQDVRSRTASSLANQYHIDSEQARRVLDTTMQMYEQWREQQPKLAHPQLEALLRWAAMLHEVGLNINHSGLHRHSAYILQNSDLPGFNQEQQLMMATLVRYHRKAIKLDDLPRFTLFKKKQFLPLIQLLRLGVLLNNQRQATTTPPTLTLITDDSHWTLRFPHDWFSQNALVLLDLEKEQEYWEGVAGWRLKIEEESTPEIAA [P0AFL6] | 5.76 ± 0.2 | 5.22 ± 0.12 | 3.78 ± 0.22 | 3.95 ± 0.21 | 3.68 ± 0.057 | 2.45 ± 0.086 | 4.69 ± 0.06 | 6.58 ± 0.48 | 3.83 ± 0.3 | 5.86 ± 0.01 | 3.96 ± 0.56 | 6.77 ± 0.37
2 | MPIQVLPPQLANQIAAGEVVERPASVVKELVENSLDAGATRIDIDIERGGAKLIRIRDNGCGIKKDELALALARHATSKIASLDDLEAIISLGFRGEALASISSVSRLTLTSRTAEQQEAWQAYAEGRDMNVTVKPAAHPVGTTLEVLDLFYNTPARRKFLRTEKTEFNHIDEIIRRIALARFDVTINLSHNGKIVRQYRAVPEGGQKERRLGAICGTAFLEQALAIEWQHGDLTLRGWVADPNHTTPALAEIQYCYVNGRMMRDRLINHAIRQACEDKLGADQQPAFVLYLEIDPHQVDVNVHPAKHEVRFHQSRLVHDFIYQGVLSVLQQQLETPLPLDDEPQPAPRSIPENRVAAGRNHFAEPAAREPVAPRYTPAPASGSRPAAPWPNAQPGYQKQQGEVYRQLLQTPAPMQKLKAPEPQEPALAANSQSFGRVLTIVHSDCALLERDGNISLLSLPVAERWLRQAQLTPGEAPVCAQPLLIPLRLKVSAEEKSALEKAQSALAELGIDFQSDAQHVTIRAVPLPLRQQNLQILIPELIGYLAKQSVFEPGNIAQWIARNLMSEHAQWSMAQAITLLADVERLCPQLVKTPPGGLLQSVDLHPAIKALKDE | 5.64 ± 0.16 | 5.376 ± 0.017 | 4.58 ± 0.16 | 5.29 ± 0.063 | 4.59 ± 0.048 | 3.002 ± 0.009 | 5.614 ± 0.0069 | 9.34 ± 0.55 | 4.635 ± 0.043 | 8.197 ± 0.054 | 5.43 ± 0.11 | 10.2 ± 0.69
3 | MPIYQIDGLTPVVPEESFVHPTAVLIGDVILGKGVYVGPNASLRGDFGRIVVKDGANIQDNCVMHGFPEQDTVVGEDGHIGHSAILHGCIIRRNALVGMNAVVMDGAVIGENSIVGASAFVKAKAEMPANYLIVGSPAKAIRELSEQELAWKKQGTHEYQVLVTRCKQTLHQVEPLREIEPGRKRLVFDENLRPKQ | 5.05 ± 0.96 | 4.12 ± 0.18 | 4.15 ± 0.16 | 5.43 ± 0.8 | 3.9 ± 0.21 | 3.49 ± 0.39 | – | 11.6 ± 2.7 | 4.19 ± 0.87 | 6.81 | 5.81 ± 0.34 | 12.9 ± 0.92
4 | MPKLVTWMNNQRVGELTKLANGAHTFKYAPEWLASRYARPLSLSLPLQRGNITSDAVFNFFDNLLPDSPIVRDRIVKRYHAKSRQPFDLLSEIGRDSVGAVTLIPEDETVTHPIMAWEKLTEARLEEVLTAYKADIPLGMIREENDFRISVAGAQEKTALLRIGNDWCIPKGITPTTHIIKLPIGEIRQPNATLDLSQSVDNEYYCLLLAKELGLNVPDAEIIKAGNVRALAVERFDRRWNAERTVLLRLPQEDMCQTFGLPSSVKYESDGGPGIARIMAFLMGSSEALKDRYDFMKFQVFQWLIGATDGHAKNFSVFIQAGGSYRLTPFYDIISAFPVLGGTGIHISDLKLAMGLNASKGKKTAIDKIYPRHFLATAKVLRFPEVQMHEILSDFARMIPAALDNVKTSLPTDFPENVVTAVESNVLRLHGRLSREYGSK | 5.44 ± 0.06 | – | 5.63 ± 0.078 | 5.73 ± 0.54 | 5.22 ± 0.39 | 3 ± 0.061 | 5.65 ± 0.24 | 10.8 ± 0.14 | 5.21 ± 0.73 | 9.66 ± 1.8 | 6.37 ± 0.53 | –
5 | MPKRTDIKSILILGAGPIVIGQACEFDYSGAQACKALREEGYRVILVNSNPATIMTDPEMADATYIEPIHWEVVRKIIEKERPDAVLPTMGGQTALNCALELERQGVLEEFGVTMIGATADAIDKAEDRRRFDVAMKKIGLETARSGIAHTMEEALAVAADVGFPCIIRPSFTMGGSGGGIAYNREEFEEICARGLDLSPTKELLIDESLIGWKEYEMEVVRDKNDNCIIVCSIENFDAMGIHTGDSITVAPAQTLTDKEYQIMRNASMAVLREIGVETGGSNVQFAVNPKNGRLIVIEMNPRVSRSSALASKATGFPIAKVAAKLAVGYTLDELMNDITGGRTPASFEPSIDYVVTKIPRFNFEKFAGANDRLTTQMKSVGEVMAIGRTQQESLQKALRGLEVGATGFDPKVSLDDPEALTKIRRELKDAGADRIWYIADAFRAGLSVDGVFNLTNIDRWFLVQIEELVRLEEKVAEVGITGLNADFLRQLKRKGFADARLAKLAGVREAEIRKLRDQYDLHPVYKRVDTCAAEFATDTAYMYSTYEEECEANPSTDREKIMVLGGGPNRIGQGIEFDYCCVHASLALREDGYETIMVNCNPETVSTDYDTSDRLYFEPVTLEDVLEIVRIEKPKGVIVQYGGQTPLKLARALEAAGVPVIGTSPDAIDRAEDRERFQHAVERLKLKQPANATVTAIEMAVEKAKEIGYPLVVRPSYVLGGRAMEIVYDEADLRRYFQTAVSVSNDAPVLLDHFLDDAVEVDVDAICDGEMVLIGGIMEHIEQAGVHSGDSACSLPAYTLSQEIQDVMRQQVQKLAFELQVRGLMNVQFAVKNNEVYLIEVNPRAARTVPFVSKATGVPLAKVAARVMAGKSLAEQGVTKEVIPPYYSVKEVVLPFNKFPGVDPLLGPEMRSTGEVMGVGRTFAEAFAKAQLGSNSTMKKHGRALLSVREGDKERVVDLAAKLLKQGFELDATHGTAIVLGEAGINPRLVNKVHEGRPHIQDRIKNGEYTYIINTTSGRRAIEDSRVIRRSALQYKVHYDTTLNGGFATAMALNADATEKVISVQEMHAQIK | 5.02 ± 0.092 | 4.45 ± 0.4 | 4.581 ± 0.016 | 5 ± 0.33 | 4.81 ± 0.32 | 3.11 ± 0.25 | 5.75 ± 0.28 | 10.6 ± 0.13 | 4.65 ± 0.3 | 8.22 ± 0.41 | 6.2 ± 0.28 | 12.6 ± 0.28
6 | MPLPDFHVSEPFTLGIELEMQVVNPPGYDLSQDSSMLIDAVKNKITAGEVKHDITESMLELATDVCRDINQAAGQFSAMQKVVLQAATDHHLEICGGGTHPFQKWQRQEVCDNERYQRTLENFGYLIQQATVFGQHVHVGCASGDDAIYLLHGLSRFVPHFIALSAASPYMQGTDTRFASSRPNIFSAFPDNGPMPWVSNWQQFEALFRCLSYTTMIDSIKDLHWDIRPSPHFGTVEVRVMDTPLTLSHAVNMAGLIQATAHWLLTERPFKHQEKDYLLYKFNRFQACRYGLEGVITDPHTGDRRPLTEDTLRLLEKIAPSAHKIGASSAIEALHRQVVSGLNEAQLMRDFVADGGSLIGLVKKHCEIWAGD | 4.72 ± 0.45 | 4.3 ± 0.47 | 4.35 ± 0.24 | 4.85 ± 0.29 | 4.73 | – | – | 9.5 ± 0.29 | 4.59 | 9.74 | 6.17 ± 1 | 11.6 ± 0.85
